This note sets out measurements from publication PMC7019167, “Development of a high affinity Anticalin® directed against human CD98hc for theranostic applications” (Theranostics, 2020).

Assay [1] has as its target T1, glycosylated human CD98hc ectodomain (hCD98hcEDg), monobiotinylated (human, UniProt P08195-2 111-529, single biotin group on the biotin acceptor peptide (BirA co-expressed); N-glycosylated).
T1 construct: human CD98 heavy chain, extracellular domain, UniProt ID P08195-2, residues Glu111-Ala529; also called 4F2hc; SLC3A2; not shown: biotin acceptor peptide (BAP), N-terminal, kept
T1 sequence (looked up): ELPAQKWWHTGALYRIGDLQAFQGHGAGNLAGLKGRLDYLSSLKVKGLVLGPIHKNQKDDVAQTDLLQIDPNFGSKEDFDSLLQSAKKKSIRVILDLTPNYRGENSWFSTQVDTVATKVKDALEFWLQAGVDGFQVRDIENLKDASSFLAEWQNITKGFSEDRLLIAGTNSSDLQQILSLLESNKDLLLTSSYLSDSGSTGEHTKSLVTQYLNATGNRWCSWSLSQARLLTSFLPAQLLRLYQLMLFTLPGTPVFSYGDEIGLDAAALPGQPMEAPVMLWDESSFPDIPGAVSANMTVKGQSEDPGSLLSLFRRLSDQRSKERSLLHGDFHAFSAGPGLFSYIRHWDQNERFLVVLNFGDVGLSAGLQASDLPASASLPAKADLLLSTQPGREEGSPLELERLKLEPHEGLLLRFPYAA
Put plainly: SPR; biotinylated hCD98hcEDg immobilised (ΔRU ≈ 225) on a streptavidin-functionalized sensorchip (Biotin CAPture kit); BIAcore 2000, 25 °C, HBS-T (20 mM Hepes/NaOH pH 7.5, 150 mM NaCl, 0.005% Tween 20); single cycle kinetics, five injections of a 1:2 dilution series of the lipocalin variant; global 1:1 Langmuir fit; KD = koff/kon. To be noted: both partners purified. For orientation: Surface plasmon resonance follows binding to a sensor surface in real time, without labels.

For assay [2], the target named is human CD98hc ectodomain, unglycosylated, biotinylated (hCD98hcED) (human) (UniProt P08195). Put plainly: SPR; single cycle kinetics (five injections of a 1:2 dilution series, 3500 s dissociation); biotinylated hCD98hcED immobilised on a streptavidin sensorchip (Biotin CAPture kit), lipocalin variant as analyte; 25 °C, HBS-T; global 1:1 Langmuir fit.

Residue numbers refer to the chain shown, from its start.

B1: lipocalin variant (Anticalin) P1E4 (designed binder)
chain: QDSTSDLIPAPPLSKVPLQQNFQDNQFHGKWYVVGIAGNSMLREDKDPFKMTATIYELKEDKSYNVTRVRFDDKKCLYRILTFVPGSQPGEFTLGNIKSRPGWTSWLVRVVSTNYNQHAMVFFKRVHQNRETFWITLYGRTKELTSELKENFIRFSKSLGLPENHIVFPVPIDQCIDG
notes: source: E. coli JM83, periplasmic extract, purified (IMAC, SEC)
One may read the Kd as the constant that tells how readily two partners part at equilibrium. Read a low Kd as higher affinity. Broadly, the koff is the rate constant with which the complex falls apart. The low end stands for slow dissociation, the high end for fast dissociation. In general, kon refers to the second-order rate constant of association. Low readings indicate slower complex formation, high ones faster complex formation. With B1, in assay [1], the Kd came to 162 ± 20.9 nM, the koff amounted to 0.09 s⁻¹ and the kon was 560000 M⁻¹ s⁻¹.

B2: lipocalin variant (Anticalin) P3D11 (designed binder)
chain: QDSTSDLIPAPPLSKVPLQQNFQDNQFHGKWYVVGRAGNTGLREDKDPGKMFATIYELKEDKSYNVTYVWFGQKKCMYSIGTFVPGSQPGEFTLGNIKSAPGRTSWLVRVVSTNYNQHAMVFFKSVTQNREGFAITLYGRTKELTSELKENFIRFSKSLGLPENHIVFPVPIDQCIDG
notes: as for B1
In assay [1], B2 had a koff of 5e-05 s⁻¹ and a kon of 300000 M⁻¹ s⁻¹.

B3: Anticalin D11vs (P3D11 with Phe71Ser and Gly81Val) (designed binder)
chain: B2 chain with F71S, G81V
notes: source: E. coli, soluble protein at preparative scale, purified
For B3, in assay [1], binding was characterised by a dissociation constant (Kd) of 0.05 ± 0.003 nM, the koff was determined as 2.2e-05 s⁻¹ and the kon was 460000 M⁻¹ s⁻¹. Moreover, in assay [2], the Kd turned out to be 0.06 nM, the koff turned out to be 2.6e-05 s⁻¹, the kon is 450000 M⁻¹ s⁻¹ and the τ1/2 (complex half-life) worked out at 442 min.
